In PMC8163098:

Tests used:
[1] = molecular target: mouse 80S ribosomes (monosomes) and polysomes (mouse (endogenous in neocortex and Neuro2a)) (UniProt P84099); assay: cryo-EM structure
[2] = molecular target: rabbit reticulocyte 60S ribosomal subunit (rabbit (endogenous in reticulocyte lysate)) (UniProt G1SV32); assay: co-sedimentation

| Substance | overall occupancy [1] [%] | percent of ribosomes with Ebp1 bound [1] [%] | percent of ribosomes with Ebp1 bound, each of the five sub-states [1] [%] | Ebp1 concentration at saturated binding (100 nM 60S) [2] [nM] | Kd [2] [nM] |
| --- | --- | --- | --- | --- | --- |
| ErbB3-binding protein 1 (Ebp1), endogenous full-length mouse protein (from UniProt P50580-1 1-394) (natural protein) | 52 | 48 | 50 |  |  |
| polyhistidine-tagged full-length recombinant Ebp1 (Ebp1-His) (from UniProt P50580 1-394) (natural protein) |  |  |  | 200 | 124 |
